Laboratory results from patent US6673915 (GENERAL HOSPITAL, dated 2004).

Target: T1, CC CKR3 stably expressed on HEK-293 cells (Example 10A) (human, UniProt P51677 1-355)
T1 sequence (looked up): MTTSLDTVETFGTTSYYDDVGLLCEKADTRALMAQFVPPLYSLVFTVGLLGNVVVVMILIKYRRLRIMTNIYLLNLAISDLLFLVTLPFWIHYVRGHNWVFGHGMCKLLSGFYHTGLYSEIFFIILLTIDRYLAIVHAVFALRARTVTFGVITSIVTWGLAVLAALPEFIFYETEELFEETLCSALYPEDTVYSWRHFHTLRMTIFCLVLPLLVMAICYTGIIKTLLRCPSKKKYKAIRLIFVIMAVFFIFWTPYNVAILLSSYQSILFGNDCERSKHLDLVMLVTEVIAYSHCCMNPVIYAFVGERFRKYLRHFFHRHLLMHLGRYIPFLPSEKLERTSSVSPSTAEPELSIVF
Assay: cell-based or functional assay

B1: recombinant human MCP-4 with the mature N-terminal Gln (PeproTech) (ligand)
chain: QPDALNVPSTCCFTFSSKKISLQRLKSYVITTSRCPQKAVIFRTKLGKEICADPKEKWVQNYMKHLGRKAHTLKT
EC50 of calcium flux relative to eotaxin at CKR3: ~2 fold
